Reference: article PMC3502708 (Journal of molecular biology, 2012)
One block for each binder: values may come before it. Where no end group is shown, it is not given here. Me3 = trimethyl (trimethylated lysine)

What was measured:
[1] = target: T1, MORF PHD1/2 fingers (aa 211-329) (human, UniProt Q8WYB5-3 211-329); assay: NMR titration
T1 sequence (looked up): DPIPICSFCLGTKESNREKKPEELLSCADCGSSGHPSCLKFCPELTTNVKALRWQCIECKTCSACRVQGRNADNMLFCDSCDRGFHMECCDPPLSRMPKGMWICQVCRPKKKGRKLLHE

[2] = target: T1, MORF PHD1/2 fingers (aa 211-329); assay: other fluorescence titration
[3] = target: MOZ PHD1/2 fingers (aa 207-318) (human, UniProt Q92794 207-318); assay: other fluorescence titration
Sequence of MOZ PHD1/2 fingers (aa 207-318) (Q92794 207-318): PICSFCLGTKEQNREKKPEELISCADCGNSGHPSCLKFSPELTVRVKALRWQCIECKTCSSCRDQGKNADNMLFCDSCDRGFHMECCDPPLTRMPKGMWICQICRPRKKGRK

Binder: ARTKQTARKSTG (peptide, UniProt P68431 2-13, looked up, acetyl-lysine at 9) [histone H3 peptide acetylated at Lys9, amino acids 1-12]
binding result [1]: binds

Binder: ARTKQTARKSTG (acetyl-lysine at 9) [histone H3 peptide acetylated at Lys9 (length not stated for the experiment)]
Kd [2]: 1.4 µM
Kd [3]: 1.5 µM

Binder: ARTKQTARKSTG (peptide, UniProt P68431 2-13, looked up) [unmodified histone H3 peptide, amino acids 1-12]
binding result [1]: binds

Now from value to binder:

fold stronger than H3K4me3 [1]: ~4 fold
Binder: ARTK(Me3)QTARK(Ac)STG [histone H3 peptide trimethylated at Lys4 and acetylated at Lys9]

Kd [1]: ~2000 µM
Binder: ARTK(Me3)QTARKSTG [histone H3 peptide trimethylated at Lys4]
